How the values were obtained:
[1] = target: T1, human LILRB1 protein (LILRB1-His, RnD systems Cat. No. 8989-T2) (human, UniProt Q8NHL6 24-458); assay: SPR (Biacore T200), antibody captured by anti-human IgG (Fc), LILRB1-His injected
T1 construct: Bought protein; also called human LILRB1-His; not shown: His tag
Protocol: The binding affinities of the 93 antibodies, which were selected in Example 1.3, to the antigen, LILRB1, were measured using Biacore T200 (GE healthcare). An anti-human IgG (Fc) antibody (GE healthcare, Cat. No. BR-1008-39, final concentration of 25 μg/mL) was flowed at the flow rate of 5 μL/min for 360 seconds to be immobilized at 5000-7000 RU on Series S Sensor Chip CM5 (GE healthcare, Cat. No. BR-1005-30) using Amine Coupling Kit (GE healthcare, Cat. No. BR-1000-508).

[2] = target: T2, LILRB1 expressed on the surface of human natural killer cell KHYG-1 (human, UniProt Q8NHL6 24-650); assay: flow cytometry (iQue) on KHYG-1 NK cells, antibody 50 ug/mL
T2 construct: whole, on cells; also called LILRB1 on KHYG-1 cells; human NK cells (surface)
T2 sequence (Q8NHL6 24-650): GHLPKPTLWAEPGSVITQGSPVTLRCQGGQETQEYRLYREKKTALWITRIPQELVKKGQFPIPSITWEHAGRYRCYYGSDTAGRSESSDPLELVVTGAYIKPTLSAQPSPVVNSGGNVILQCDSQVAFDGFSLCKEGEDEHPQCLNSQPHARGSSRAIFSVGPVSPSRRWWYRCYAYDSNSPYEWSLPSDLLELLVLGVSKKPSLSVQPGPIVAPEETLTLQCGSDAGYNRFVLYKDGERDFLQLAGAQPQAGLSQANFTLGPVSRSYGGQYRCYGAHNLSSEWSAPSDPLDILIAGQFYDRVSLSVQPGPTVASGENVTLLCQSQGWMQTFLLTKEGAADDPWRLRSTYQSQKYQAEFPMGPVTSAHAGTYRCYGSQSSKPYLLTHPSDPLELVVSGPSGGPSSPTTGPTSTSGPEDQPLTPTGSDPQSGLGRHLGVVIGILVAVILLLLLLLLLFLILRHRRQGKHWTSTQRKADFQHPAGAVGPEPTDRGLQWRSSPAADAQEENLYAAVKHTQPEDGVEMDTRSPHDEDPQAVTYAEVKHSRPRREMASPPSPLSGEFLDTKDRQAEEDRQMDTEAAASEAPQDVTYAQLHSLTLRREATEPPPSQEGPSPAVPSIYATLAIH
Protocol: In order to test whether or not 93 antibodies selected in Example 1.4 bind LILRB1 expressed on surface of immune cells, natural killer cell (NK cell) surface binding assay was performed. A human NK cell, KHYG-1 cell (JCRB) was cultured in RPMI 1640 medium (Gibco) supplemented with 10%(w/v) of FBS (Gibco) and 100 U/mL of interleukin-2 (Novartis). KHYG-1 cells were added to a U-bottom 96-well tissue culture plate (BD Falcon) at the amount of 5×10⁴ cells/well. Each of the selected antibodies was added to the well to the final concentration of 50 μg/mL per well and incubated at 4° C. for 1 hour.
In order to see the level of LILRB1-specific binding of the selected antibodies, a human IgG4 isotype control antibody (Biolegend) was treated in the same manner. After washing with FACS buffer, the cells were treated with an anti-human Fc-biotin antibody (life technologies) and incubated at 4° C. for 1 hour. After washing with FACS buffer, the cells were treated with streptavidin PE (BD Pharmigen) and incubated at 4° C. for 30 minutes. After washing with FACS buffer, the cells were resuspended and subjected to analysis using iQue screener (Sartorius).

[3] = target: T3, human LILRA5 overexpressed on CHO cells (human, UniProt A6NI73 42-299); assay: flow cytometry (iQue screener), CHO cells overexpressing LILRA5, anti-human Fc-biotin + streptavidin-PE [panel LILRA5]
T3 construct: Full-length protein expressed in CHO cells; also called NP_067073
T3 sequence (A6NI73 42-299 limits assumed): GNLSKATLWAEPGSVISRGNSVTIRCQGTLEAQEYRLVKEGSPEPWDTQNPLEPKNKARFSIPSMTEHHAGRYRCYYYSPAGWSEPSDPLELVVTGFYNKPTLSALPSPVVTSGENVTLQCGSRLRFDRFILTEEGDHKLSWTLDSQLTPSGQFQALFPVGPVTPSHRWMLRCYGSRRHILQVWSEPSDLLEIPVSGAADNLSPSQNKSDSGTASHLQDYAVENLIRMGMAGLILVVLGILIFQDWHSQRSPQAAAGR
Protocol: (§1) In order to confirm whether or not the selected antibodies bind to human LILR family proteins other than LILRB1, a cell surface binding assay was performed. The CHO cells (prepared in Example 5) expressing each of various LILR family proteins on surface were added to U-bottom 96-well tissue culture plate (BD Falcon) at the amount of 1×10⁵ cells/well. The cells in each well were treated with the selected antibody in the final concentration of 20 ug/mL and incubated at 4° C. for 60 minutes. After washing with FACS buffer, the cells were treated with anti-human Fc-biotin antibody (Invitrogen) and incubated at 4° C. for 30 minutes. After washing with FACS buffer, the cells were treated with streptavidin (BD Pharmigen) labeled with PE or FITC fluorescence and incubated at 4° C. for 30 minutes. After washing with FACS buffer, the cells were resuspended and subjected to analysis using iQue screener (Sartorius). The cells treated with each LILR protein specific antibody (Table 27) were used as a positive control, and the cells treated with human IgG4 isotype control antibody (Biolegend) were used as a negative control.

[4] = target: T4, human LILRA4 overexpressed on CHO cells (human, UniProt P59901 24-499); assay: flow cytometry (iQue screener), CHO cells overexpressing LILRA4, anti-human Fc-biotin + streptavidin-PE [panel LILRA4]
T4 construct: Full-length protein expressed in CHO cells; also called NP_036408
T4 sequence (P59901 other isoform, or with tags, fused parts or gaps limits assumed): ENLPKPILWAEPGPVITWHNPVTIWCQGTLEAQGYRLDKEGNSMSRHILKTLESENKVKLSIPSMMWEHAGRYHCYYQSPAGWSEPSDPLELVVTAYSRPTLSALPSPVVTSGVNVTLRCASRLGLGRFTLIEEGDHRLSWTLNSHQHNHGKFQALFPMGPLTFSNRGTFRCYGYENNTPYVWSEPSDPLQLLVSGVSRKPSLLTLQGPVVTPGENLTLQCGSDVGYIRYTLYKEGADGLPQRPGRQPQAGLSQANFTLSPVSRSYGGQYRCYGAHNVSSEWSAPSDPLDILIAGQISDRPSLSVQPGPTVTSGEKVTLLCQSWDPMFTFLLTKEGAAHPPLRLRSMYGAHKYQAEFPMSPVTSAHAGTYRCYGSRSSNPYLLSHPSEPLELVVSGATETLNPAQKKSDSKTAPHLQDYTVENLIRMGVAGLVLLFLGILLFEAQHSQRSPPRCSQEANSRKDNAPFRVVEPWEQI
Protocol: as §1

[5] = target: T5, human LILRA2 overexpressed on CHO cells (human, UniProt Q8N149 24-483); assay: flow cytometry (iQue screener), CHO cells overexpressing LILRA2, anti-human Fc-biotin + streptavidin-PE [panel LILRA2]
T5 construct: Full-length protein expressed in CHO cells; also called AAH17412
Protocol: as §1

[6] = target: T6, human LILRA3 overexpressed on CHO cells (human, UniProt Q8N6C8 24-439); assay: flow cytometry (iQue screener, BL1-H channel), CHO cells overexpressing LILRA3, anti-human Fc-biotin + labelled streptavidin [panel LILRA3]
T6 construct: Full-length protein expressed in CHO cells; also called AAH28208
T6 sequence (Q8N6C8 24-439 A105V limits assumed): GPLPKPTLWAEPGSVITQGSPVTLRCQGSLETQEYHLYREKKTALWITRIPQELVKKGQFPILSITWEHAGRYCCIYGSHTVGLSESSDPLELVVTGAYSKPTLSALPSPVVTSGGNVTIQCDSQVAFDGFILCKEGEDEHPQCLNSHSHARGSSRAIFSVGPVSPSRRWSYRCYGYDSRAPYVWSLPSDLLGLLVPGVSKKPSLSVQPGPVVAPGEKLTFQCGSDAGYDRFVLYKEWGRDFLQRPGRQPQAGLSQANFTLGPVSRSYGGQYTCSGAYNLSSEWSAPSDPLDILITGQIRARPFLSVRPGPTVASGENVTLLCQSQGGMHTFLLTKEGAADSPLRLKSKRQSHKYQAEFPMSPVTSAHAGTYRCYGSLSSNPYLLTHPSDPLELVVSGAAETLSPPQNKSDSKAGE
Protocol: as §1

[7] = target: T7, human LILRB5 overexpressed on CHO cells (human, UniProt O75023 24-590); assay: flow cytometry (iQue screener), CHO cells overexpressing LILRB5, anti-human Fc-biotin + streptavidin-PE [panel LILRB5]
T7 construct: Full-length protein expressed in CHO cells; also called NP_006831
T7 sequence (O75023 24-590 P542R limits assumed): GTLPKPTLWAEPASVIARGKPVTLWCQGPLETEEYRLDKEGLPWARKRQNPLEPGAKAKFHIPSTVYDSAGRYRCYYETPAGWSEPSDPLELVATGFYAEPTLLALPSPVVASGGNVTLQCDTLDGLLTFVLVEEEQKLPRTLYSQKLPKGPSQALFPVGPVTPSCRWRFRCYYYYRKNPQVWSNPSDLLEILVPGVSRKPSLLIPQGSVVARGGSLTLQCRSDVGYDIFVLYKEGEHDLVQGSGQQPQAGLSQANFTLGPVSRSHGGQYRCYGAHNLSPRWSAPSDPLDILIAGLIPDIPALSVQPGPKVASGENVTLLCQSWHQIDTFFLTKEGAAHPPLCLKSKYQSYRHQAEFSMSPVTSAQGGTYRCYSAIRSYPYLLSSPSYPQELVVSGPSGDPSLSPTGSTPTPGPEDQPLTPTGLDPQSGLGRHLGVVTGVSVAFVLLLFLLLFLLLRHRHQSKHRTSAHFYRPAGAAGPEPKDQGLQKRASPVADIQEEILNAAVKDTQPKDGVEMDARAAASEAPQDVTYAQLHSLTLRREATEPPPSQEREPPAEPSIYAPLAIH
Protocol: as §1

[8] = target: T8, human LILRB3 overexpressed on CHO cells (human, UniProt O75022 24-631); assay: flow cytometry (iQue screener), CHO cells overexpressing LILRB3, anti-human Fc-biotin + streptavidin-PE [panel LILRB3]
T8 construct: Full-length protein expressed in CHO cells; also called XP_006726377
T8 sequence (O75022 other isoform, or with tags, fused parts or gaps limits assumed): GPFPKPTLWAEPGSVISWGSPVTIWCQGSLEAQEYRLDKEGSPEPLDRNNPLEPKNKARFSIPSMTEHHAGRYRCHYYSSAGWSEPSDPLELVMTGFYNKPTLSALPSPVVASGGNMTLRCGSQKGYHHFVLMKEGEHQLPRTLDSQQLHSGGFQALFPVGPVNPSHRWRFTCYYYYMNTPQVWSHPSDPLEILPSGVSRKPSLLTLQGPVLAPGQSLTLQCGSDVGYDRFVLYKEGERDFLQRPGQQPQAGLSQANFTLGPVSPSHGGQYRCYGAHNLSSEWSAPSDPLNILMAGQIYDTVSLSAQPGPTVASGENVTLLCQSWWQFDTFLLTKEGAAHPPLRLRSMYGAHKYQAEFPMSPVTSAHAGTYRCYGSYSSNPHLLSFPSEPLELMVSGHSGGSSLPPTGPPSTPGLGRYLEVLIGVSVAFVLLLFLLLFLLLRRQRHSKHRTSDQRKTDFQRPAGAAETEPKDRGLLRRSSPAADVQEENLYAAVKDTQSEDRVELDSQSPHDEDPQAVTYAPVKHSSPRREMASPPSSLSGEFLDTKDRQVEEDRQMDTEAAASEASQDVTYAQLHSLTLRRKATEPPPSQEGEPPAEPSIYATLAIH
Protocol: as §1

[9] = target: T9, human LILRB4 overexpressed on CHO cells (human, UniProt Q8NHJ6 22-448); assay: flow cytometry (iQue screener), CHO cells overexpressing LILRB4, anti-human Fc-biotin + streptavidin-PE [panel LILRB4]
T9 construct: Full-length protein expressed in CHO cells; also called NP_001265355
T9 sequence (Q8NHJ6 22-448 D223G/Q414R limits assumed): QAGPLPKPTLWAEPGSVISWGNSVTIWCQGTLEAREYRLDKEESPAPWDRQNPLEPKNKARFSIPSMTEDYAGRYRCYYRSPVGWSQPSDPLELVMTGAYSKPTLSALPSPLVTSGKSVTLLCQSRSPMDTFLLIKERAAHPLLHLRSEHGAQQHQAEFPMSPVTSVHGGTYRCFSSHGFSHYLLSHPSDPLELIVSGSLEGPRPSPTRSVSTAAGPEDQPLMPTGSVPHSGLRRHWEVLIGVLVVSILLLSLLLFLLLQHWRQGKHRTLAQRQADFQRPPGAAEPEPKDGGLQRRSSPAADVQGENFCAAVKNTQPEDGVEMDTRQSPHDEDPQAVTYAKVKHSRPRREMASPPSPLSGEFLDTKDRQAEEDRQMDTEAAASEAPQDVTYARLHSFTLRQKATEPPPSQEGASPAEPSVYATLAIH
Protocol: as §1

[10] = target: T10, human LILRA1 overexpressed on CHO cells (human, UniProt O75019 17-489); assay: flow cytometry (iQue screener), CHO cells overexpressing LILRA1, anti-human Fc-biotin + streptavidin-PE [panel LILRA1]
T10 construct: Full-length protein expressed in CHO cells; also called NP_006854
T10 sequence (O75019 17-489 limits assumed): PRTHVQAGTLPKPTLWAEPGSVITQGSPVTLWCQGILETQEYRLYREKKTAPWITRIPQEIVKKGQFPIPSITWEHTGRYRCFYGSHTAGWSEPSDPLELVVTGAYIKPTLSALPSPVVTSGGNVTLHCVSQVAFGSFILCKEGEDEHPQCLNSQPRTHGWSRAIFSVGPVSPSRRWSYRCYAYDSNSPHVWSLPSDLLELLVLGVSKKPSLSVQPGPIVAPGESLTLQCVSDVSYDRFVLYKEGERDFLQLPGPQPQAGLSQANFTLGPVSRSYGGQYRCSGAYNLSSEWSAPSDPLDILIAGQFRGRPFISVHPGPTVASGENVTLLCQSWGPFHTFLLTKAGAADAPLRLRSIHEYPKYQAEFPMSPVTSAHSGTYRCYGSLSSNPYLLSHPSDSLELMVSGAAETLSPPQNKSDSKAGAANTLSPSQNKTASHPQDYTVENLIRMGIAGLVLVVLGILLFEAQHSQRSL
Protocol: as §1

[11] = target: T11, human LILRA6 overexpressed on CHO cells (human, UniProt Q6PI73 24-481); assay: flow cytometry (iQue screener), CHO cells overexpressing LILRA6, anti-human Fc-biotin + streptavidin-PE [panel LILRA6]
T11 construct: Full-length protein expressed in CHO cells; also called NP_001347096
T11 sequence (Q6PI73 24-481 limits assumed): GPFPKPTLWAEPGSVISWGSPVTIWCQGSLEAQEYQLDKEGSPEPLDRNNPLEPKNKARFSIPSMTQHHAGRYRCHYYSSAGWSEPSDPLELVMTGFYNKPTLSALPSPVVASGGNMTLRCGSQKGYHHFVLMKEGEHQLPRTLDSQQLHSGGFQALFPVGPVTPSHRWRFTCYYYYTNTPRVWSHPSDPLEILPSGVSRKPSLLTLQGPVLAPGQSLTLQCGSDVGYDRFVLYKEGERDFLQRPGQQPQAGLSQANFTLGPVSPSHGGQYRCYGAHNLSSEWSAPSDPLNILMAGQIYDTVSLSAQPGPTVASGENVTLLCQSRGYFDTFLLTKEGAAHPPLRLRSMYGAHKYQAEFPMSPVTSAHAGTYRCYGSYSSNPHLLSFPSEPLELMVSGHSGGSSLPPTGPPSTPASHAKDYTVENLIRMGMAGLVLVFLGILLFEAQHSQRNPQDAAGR
Protocol: as §1

[12] = target: T12, human LILRB2 overexpressed on CHO cells (human, UniProt Q8N423 22-597); assay: flow cytometry (iQue screener), CHO cells overexpressing LILRB2, anti-human Fc-biotin + streptavidin-PE [panel LILRB2]
T12 construct: Full-length protein expressed in CHO cells; also called AAH36827
Protocol: as §1

[13] = target: T13, human LILRB1 overexpressed on CHO cells (human, UniProt Q8NHL6 24-650); assay: flow cytometry (iQue) on CHO cells overexpressing LILRB1, threefold dilutions
T13 construct: Full-length protein expressed from a vector in CHO cells; also called AAH15731
T13 sequence (Q8NHL6 other isoform, or with tags, fused parts or gaps limits assumed): as the sequence (Q8NHL6 24-650) above, with L45P, I119T, S132I, E602K counted along it
Protocol: In order to determine EC₅₀ values of the antibodies prepared in Examples 1 and 4 for binding to human LILRB1-overexpressing cell lines, a cell surface binding assay was performed. Representing the prepared antibodies, EC₅₀ values of E3.1 and H11 antibodies were measured. The CHO cells prepared in Example 5, which overexpress LILRB1 on surface, were added to U-bottom 96-well tissue culture plate (BD Falcon) at the amount of 1×10⁵ cells/well. Threefold serial dilutions of E3.1 and H11 antibodies were prepared starting from the final concentrations of 600 ug/mL and 27 ug/mL, respectively. The cells were treated with each of the diluted antibodies and incubated at 4° C. for 60 minutes. After washing with FACS buffer, the cells were treated with anti-human Fc-biotin antibody (Invitrogen) and incubated at 4° C. for 30 minutes. After washing with FACS buffer, the cells were treated with streptavidin (BD Pharmigen) labeled with PE fluorescence and incubated at 4° C. for 30 minutes. After washing with FACS buffer, the cells were resuspended and subjected to analysis using iQue screener (Sartorius). EC₅₀ values were calculated using nonlinear regression formula of GraphPad Prism software, and the obtained results are shown in Table 28: […]

T1 sequence (Q8NHL6 24-458 limits assumed): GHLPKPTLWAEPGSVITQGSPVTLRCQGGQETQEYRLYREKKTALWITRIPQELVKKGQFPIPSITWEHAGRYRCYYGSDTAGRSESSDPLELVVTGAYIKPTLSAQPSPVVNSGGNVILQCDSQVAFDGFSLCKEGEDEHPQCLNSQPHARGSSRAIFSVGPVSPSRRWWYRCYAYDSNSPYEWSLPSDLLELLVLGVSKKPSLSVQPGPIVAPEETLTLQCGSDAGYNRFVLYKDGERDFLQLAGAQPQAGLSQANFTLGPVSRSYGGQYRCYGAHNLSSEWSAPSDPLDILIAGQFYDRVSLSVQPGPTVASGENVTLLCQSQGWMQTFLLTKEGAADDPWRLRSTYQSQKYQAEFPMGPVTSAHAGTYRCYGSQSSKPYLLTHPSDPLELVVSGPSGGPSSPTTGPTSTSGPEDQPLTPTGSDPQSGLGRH

Binder | Kd [1] [nM] | koff [1] [s⁻¹] | kon [1] [M⁻¹ s⁻¹] | % of population 2 [2] [%] | Mean Fluorescence Intensity [2] | binding result [3] | binding result [4] | binding result [5] | binding result [6] | binding result [7] | binding result [8] | binding result [9] | binding result [10] | binding result [11] | binding result [12] | EC50 [13] [nM]
anti-LILRB1 antibody G11 (antibody, human IgG4 S228P, V domains shown, human IgG4, lambda light chain; also called Antibody clone G11) VH: QVQLVQSGAEVKKPGESLKISCKGSGYSFTSYWIGWVRQMPGKGLEWMGIIYPGDSDTRYSPSFQGQVTISADKSISTAYLQWSSLKASDTAMYYCASQYYDGGYYMDVWGQGTLVTVSS VL: QSALTQPRSVSGSPGQSVTISCTGTSSDVGGYNYVSWYQQHPGKAPKLMIYDVSKRPSGVPDRFSGSKSGNTASLTISGLQAEDEADYYCSSYSSSSTLVVFGGGTKLTVLG | 45.2 | 0.00205 | 45400 | 40.1 | 263000 | – | – | – | – | – | – | – | – | – | – | –
anti-LILRB1 antibody H2 (antibody, human IgG4 S228P, V domains shown, human IgG4, lambda light chain; also called Antibody clone H2) VH: QVQLVQSGAEVKKPGASVKVSCKASGYTFTSYDIHWVRQATGQGLEWMGWISAYNGNTNYAQKLQGRVTMTTDTSTSTAYMELRSLRSDDTAVYYCARDGGDAFDIWGQGTLVTVSS VL: SYELTQDPAVSVALGQTVRITCQGDSLRNYYASWYQQKPGQAPILVISGNNKRPSGIPDRFSGSSSGDTASLTISGAQAEDEADYYCNSLDSTYNHPIFGGGTKVTVLG | 16.2 | 0.0095 | 586000 | 29 | 239000 | – | – | – | – | – | – | – | – | – | – | –
anti-LILRB1 antibody E3.1 (antibody, human IgG4 S228P, lambda, human IgG4; heavy chain of E3; also called Antibody clone E3.1) heavy: not shown light: SYELTQDPAVSVALGQTVRITCQGDSLRNFYASWYQQKSGQAPVLVMYGKNNRPSGIPDRFSGSTSGNTASLTITGAQAEDEADYYCNSRDSSGSHLTGVFGGGTKVTVLGQPKANPTVTLFPPSSEELQANKATLVCLISDFYPGAVTVAWKADGSPVKAGVETTKPSKQSNNKYAASSYLSLTPEQWKSHRSYSCQVTHEGSTVEKTVAPTECS | – | – | – | – | – | no binding (tested: 20 ug/mL) | no binding (tested: 20 ug/mL) | no binding (tested: 20 ug/mL) | no binding (tested: 20 ug/mL) | no binding (tested: 20 ug/mL) | no binding (tested: 20 ug/mL) | no binding (tested: 20 ug/mL) | no binding (tested: 20 ug/mL) | no binding (tested: 20 ug/mL) | no binding (tested: 20 ug/mL) | 7.15
anti-LILRB1 antibody H11 (antibody, human IgG4 S228P, V domains shown, human IgG4, lambda light chain; also called Antibody clone H11) VH: QVQLVQSGAEVKKPGASVKVSCKASGYTFTSYYMHWVRQAPGQGLEWMGIINPSGGSTSYAQKFQGRVTMTRDTSTSTVYMELSSLRSEDTAVYYCARDAGSSSDYWGRGTLVTVSS VL: SYELTQDPAASVALGQTVRITCQGDSLRSYYASWYQQKPGQAPVVVIYGRNNRPSGIPDRFSGSSSGDTASLTITGAQAEDEADYYCKSRDSSGNHYVFGTGTKLTVLG | 7.62 | 0.00226 | 296000 | 32.6 | 245000 | no binding (tested: 20 ug/mL) | no binding (tested: 20 ug/mL) | – | no binding (tested: 20 ug/mL) | no binding (tested: 20 ug/mL) | no binding (tested: 20 ug/mL) | no binding (tested: 20 ug/mL) | – | no binding (tested: 20 ug/mL) | – | 0.376
